How the values were obtained:
Test in all cases: SPR; ProteOn XPR36; DR3 variants (5 ug, acetate buffer pH 5.5) immobilised on a GLC chip, BSA as reference; TL1A run at 100, 50, 25, 12.5 and 6.25 nM, 30 ul/min, 300 s, 10 min dissociation; PBS with 2 mM DTT; Langmuir single binding site model
[1] = target: DR3 variant H3 (DR3 extracellular domain-Fc) (human) (UniProt Q93038)
[2] = target: DR3 variant O6 (DR3 extracellular domain-Fc) (human) (UniProt Q93038)
TNF-like 1A (TL1A) = target: T1, TNF-like 1A (TL1A) (UniProt O95150 72-251); settings: both partners purified
T1 construct: TL1A (TNF-like 1A), the cytokine run over immobilised DR3 variants in SPR and added to cells; also called TL1A cytokine
T1 sequence (looked up): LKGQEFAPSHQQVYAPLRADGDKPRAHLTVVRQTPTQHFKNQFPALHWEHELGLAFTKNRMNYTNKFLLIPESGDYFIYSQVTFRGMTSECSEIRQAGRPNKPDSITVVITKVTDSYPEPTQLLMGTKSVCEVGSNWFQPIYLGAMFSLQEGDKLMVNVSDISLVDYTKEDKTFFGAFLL

## TNF-like 1A (TL1A) (from UniProt O95150 72-251) (ligand)
[1]
  Kd: 8.26 nM
  koff: 0.000351 s⁻¹
  kon: 42600 M⁻¹ s⁻¹
[2]
  Kd: 9.83 nM
  koff: 0.000357 s⁻¹
  kon: 36300 M⁻¹ s⁻¹

B1: native DR3-Fc (human DR3 extracellular domain fused with human IgG1 Fc) (Fc fusion, UniProt Q93038 25-199, looked up)
chain: QGGTRSPRCDCAGDFHKKIGLFCCRGCPAGHYLKAPCTEPCGNSTCLVCPQDTFLAWENHHNSECARCQACDEQASQVALENCSAVADTRCGCKPGWFVECQVSQCVSSSPFYCQPCLDCGALHRHTRLLCSRRDTDCGTCLPGFYEHGDGCVSCPTSTLGSCPERCAAVCGWRQ
modifications: N-linked glycosylation (shown by Endo-H cleavage)
notes: amplified from an EST cDNA clone (Open Biosystems); pFUSE vector (Invivogen); also called WT; soluble native DR3; source: HEK293T, transfected, conditioned medium (ELISA screen); 293F (HEK293F), transfected, purified (MonoQ, SP, butyl HIC); not shown: Fc (human IgG1), C-terminal, kept
TNF-like 1A (TL1A)
  Kd: 44.9 nM
  koff: 0.00072 s⁻¹
  kon: 16000 M⁻¹ s⁻¹
